According to the DeepSol protein solubility set:

Experiment: soluble on expression in E. coli; label from the status in PepcDB or PDB records

Sequence	soluble on expression in E. coli
MAHHHHHHMLRPTRVSRLVRSGSVALTPSCWTTKPAGWYLVPSSTLPATEELRVGKCFDFLNHSAQYLFLGQVMALAEEVKCIPWLEWFYSELHFSLPPTKEAELLANYMNDQERLRCGLRNHSEGGTSSSDIAWSRELKERVQRRAEEDFCWLLTHDQRKTEKFLQETFIQWHHRADYLVTRKSREKREFREDLTLQKVIQQGQERKRRMQRRRNRDEARQEAIKSGKESEWDNFTHDVLPRELREALDRESDGMEDVRLSRAGTATGGWSRSMRSHPNFR	soluble
MREDNQSLSHTTWNCKYHIVFAPKYRRQIIYGRYKASIGRIIRDLCERKGVIIHEANACSDHIHMLISIPPKLSVSSFMGYLKGKSSLMIFDKHANLKYKYGNRKFWCRGYYVDTVGRNQKVIAEYIQNQLQEDRVADQLTLFESVDPFTGEINKRK	not soluble
SSFQGPLDATVVVNLQSPTLEEKNEFPEDLRTELMQTLGSYGTIVLVRINQGQMLVTFADSHSALSVLDVDGMKVKGRAVKI	soluble
MTVKCKAEESLTCSCVDVGTIIDGSDCSVEVHQFYSTEADANAVLERLTKKARNTESDPCEIKSEIVAVENGVQLNASFTFSCQAEAMIFELANR	not soluble
MSLDFVIEMLGIRKEFSGFVANDNITLQLKQGEIHALLGENGAGKSTLMNVLFGLYEPDGGEIRVRGTKENINSPNKANELGIGMVHQHFMLVDKFTVAENIILGKEPSKLGVIEKKKAIEEIKEISDRYGLRVDPNAVVRDISIGMQQRVEILKTLYRGADILIFDEPTAVLTPQEIKELIQIMRSLIKEGKSIILITHKLKEIMDVCDRVTVIRRGKGMGTVNVPETTPQDLANLMVGREVVFTTEKIDAKPGKDVLEVKDLVVKESRGVESVRGLNLTVRAGEIVGIAGVDGNGQSELISAIAGLSKVTSGSILLNGEHIENKKPRKITEAGLGHIPEDRHKHGLVLEMSLGENIALQTYYKKPISSKGFLNHKAMYDFARELIEEYDVRASSEYVAAKSLSGGNQQKAIIAREIHRNPDFLIAAQPTRGLDVGAIEFIHRRLIEQRDNGKAVLLMSFELDEIMNVSDRIAVIYEGKIVAIVDPKETTEQELGLMMAGSSKQEAEMGEKEGHHHHHH	not soluble
MSLDYEIFNPYEGLIFDMDGTLIDTMPVHAQAWTMVGKKFGYEFDFQIMYNFGGATVRTIAGEMMKAANMPLDRIEDVLAAKRELSYQLIPTQSKLLPTFEIVKSFHQKKPIALGSGSHRKIIDMLMDKLAIAPYFNAIVSADDVKEHKPHPETFLRCAELIQANPSRCIVFEDADLGVQAGLSAGMDVFDVRTREIISPREGHHHHHH	soluble
SNAPLKEQKVINTANIKTNSKLDLAEYENGLINIATQQFDTESHVLQLNQYIPEKLIDELVAKVEAPVLTNIIEQDYFGKQNSNELSLSGVMIGLAMSSSVSNEEAMSKGTEVAKQLIEAINKNDKYNKSPITFAIFKQESTSSLKNGTYIASATVQKNDTNLGNWSTIDEKSYSYPSDEFTQAHGEDNTKINNFAKEIKGFSNGDFIPVNAKVSYKKDQMDTLNMNIVIKYNGKTELMALTQLAAQGMLDKLPKDAKVQLQIKSESKIEAVIIKEKNSDKPFVSFL	soluble
MGSDKIHHHHHHMDTQAFKQTLHKSDRYNRRGFGSANKRAQALAEAYQSGLIGSIRENGNLLEHGRLKVKLAEAFGFCWGVERSVAMAYETRKHYPNERIWITNEIIHNPSVNDHLRKMNVLFISEEKGVKDFSVVKDGDVVILPAFGATVQDMKLLHDRGCHIIDTTCPWVSKVWHTVEKHKKHTFTSIIHGKYKHEETLATSSFAGTYLVLFDLEEANYVSDYILGKGNREDFLKRFSKASSAGFDPDKDLQKVGVANQTTMLKSETEEIGRLFEKTMLQRFGPAQLNEHFLAINTICDATEERQGAMFSLVDEPLDLMVVIGGFNSSNTTHLQEIAISRGIRSFHIDTPERIGEETNTITHMPLEGGELLTEENFLQNGNISVGITSGASTPDRVVEDVIHKLMKIGENF	not soluble
MAHHHHHHMGTLEAQTQGPGSMAIDPNSIGAVTEPMLFEWTDRDTLLYAIGVGAGTGDLAFTTENSHGIDQQVLPTYAVICCPAFGAAAKVGTFNPAALLHGSQGIRLHAPLPAAGKLSVVTEVADIQDKGEGKNAIVVLRGRGCDPESGSLVAETLTTLVLRGQGGFGGARGERPAAPEFPDRHPDARIDMPTREDQALIYRLSGDRNPLHSDPWFATQLAGFPKPILHGLCTYGVAGRALVAELGGGVAANITSIAARFTKPVFPGETLSTVIWRTEPGRAVFRTEVAGSDGAEARVVLDDGAVEYVAG	soluble
MLHAETEVIVEDEPPILNLSRYRDEDRIQMDPFGDDEEEDDGFMDGQPPDLEMNLPSKQRRVRTRKPMDTDGSIDDGDKEKKAMKIINPAAATPSKMFRVQGERVISKALAERQYHVKLFEDEVEMTENGDCYATVISGCLAYLLRKERIIELLTNETEIAMMYGDKKKKYKKKISSKNKENCQNFKLLSEKSVRKKKQKSTVPIFSREGGWLLDKPPRLPPLVPHKACFAFYVDGSKIMSIKDVSNDDLKPWSSTGGEQHFNDPVIKPNVRRHPVARLNGRLQSVKGDPRIAELHLTEYSAWLPRLLRLRKKIFYLSRDGQIYGNVLILYDYTCPGEIPPIVNLPHGNDYLRHAMVDPTDPHVSLDLDDPGSTPFEDEIVEGPRGGMFLRVKLAKLGWAHNKKLLLRYLVNEPELLSQSNCLNRRTPYLPPLIPTTGVFVYFVPANFVANQINHTGDGLSPWTVNPASEGPSPRVRSTRRAIVQDDNGQFQMAKDTAGGWHSSQLCLVETMSVLARCPRLRKRLIYIQRNNTITIGNVCYIYEYVRDGPVPCPYVKPPGTPGRGVGGSKWIDDQKKIDTSQDPSTSSAAPNDEEQFIDVEDLEVVEEEVIGHHNDSLDQIQLQHDQHQQQQHQLMQDVSIAQDAQGHLLDDDLLDMSQEDVLNNGYDLEFDDDPLTQQENPAPYFENPRQLETGHIYLTVRHKRVASTFEAVLEWIANTNVVEERGLLNYAKPGHPPIVRNSRAYAFFVAGTAIFPHDINRDDFSPWSHNGNAQNPTCYRTKVRKVGVICDELGSQFQVLHGSQGKQPKKSDGNRRSPKIPKSAYFL	not soluble
MPGTEKTQHISLTTQVENRLKHQLSIGALKPGARLITKNIAQELGVSITPVREALLRLVSSSALAVAPAQAFMVPEISLESLLEINTIRTALEEMAVVAAAGKITPDREQTLNALLDEFQQALESGVMEKILLANRAFRFEIYHYADMPTLYAMIEQLWVRLGPSLHFLYDNFKLDDYQNGVNLYRKLLNALVTGDKEASRHCLQNVLQQNVATIKNQYFM	not soluble
MRLTEEEVQALLEKADGWKLADERWIVKKYRFQDYLQGIEFVRRIAAISENANHHPFISIDYKLITVKLSSWRAKGLTKLDFDLAKQYDEVYNQMKQGEGE	soluble
MKRLSPEVFKVPIDRIRNGYYSDIYFINYVKVLKRDSRHPRVYYQFFPRKDAVICGIDEALAILKFCTGYYKDEEKARELFEEILKLDKEMQAASVEMDVQKILELTQKKWDLRLKLNDLWVDKWDEIEVHALYDGEEAKEGEPIMTIEGDPTYFGYLETVLLGVIARATSTATAVKKVVKAARGKPVLFFSARFDHYWVQATDGYAALKAGAFGVSTDANADYWGVKSMGTMPHALIACYDGKTEDAAIAFDRHMEEDVNRIVLVDWDNDVIGTTFRVIEKFYEYVMKKPFKLGVTDPSPIIGPGKNKIWGVRFDTSGNLRDKSVVPKDESSFGVCPELVWRARQEFDKVGLRDLKIVVSGGFDEKKIDLFERLGVPADAYGVGSRLLREKVDITADIVEVNGRHCAKVGRYKIENPRLKKVGKRYWEEE	soluble
MTGPTPTEAVDITVSVGGFKVGDQNYPINPKITFTNNTGQAIPGGTEFQFDIPVSAPDNAKDQSGGGLKVIASGHTRANNIGGLDGVMHRVSFSLPAWKDLPAGGTYELDMVYYLPISGPANYSVISGGKEFAFKFEQPDLPIGDLNAGTGGGGTTEPGSCDTAGLVTYPNLPQTDLEHHHHHH	soluble
MGSDKIHHHHHHMAQTVSIIVSPEDQVRLAEVIGDRNSPQKHVQRARIVLHSAEHRPVLEVARDIGISRPAVWRWQLRYAEQGVDGLLRDKTRKPGKPPLPLGTVARVLALPCSNPPGSVTHWTGRAVAKAVGISLRAVQRIWDAHHLQPHRLRTFKKSKDPAFTEKVEDVVGLYMEPPCHAVVLSIDEKSQIQALDRTQPGLPLKPGKCATMTHDYKRNGTTTLFAALNILDGTVLGRCMQKHRHQEFIKFLNAVERAVPAGKIIHAILDNYGTHKHPKVRQWLADHPRWVFHFTPTL	not soluble
RVAVLVATHGNNTASSMVSVAKKLLGEGLVEGIDMPLDQSPKIVLDKLTERAKEMDMGRGLLLLVDMGSLTSFAPVISERTGIPVRSIDMVSTATVIEAVRKSNILDMELDSIYDSLKDFRGYGGYNSDDDTLDS	not soluble
MKIKEVRITGFRSYKDNTNVSGFSPRSNVVVGRNGSGKSNFFHAIQFVLSDEYAHLKEEQRLGLLHESTGPKVAHARVEITFDNSEKRLMAFENSEVKIVRQVGKKKDQYYIDNKMVPRAEVVNLMESAGFSRSNPYYIVKQGKINELATSPDAYKLKLLREVAGTRVYDERKEESLKILKETKMKTEKIQGLLKYIDERLQTLENEKEDLKEYQKLDKTKRSVEYTMYDNTNKEAIKEKTKLDEQKVELNQKDNNVKSQLNDVIAEMAKLKTDKKKLESLGRGLREDKETLQAEETKMVEEKMTLKLEIDSLNEENTRERQGRQNAEHSLQGVGDEIFKNEEELDTIKPEYAKLLEEESRLKTDIRIDESRAKEILAKQGQRSQFSSVDDRDKFLRNEIRRISGLIADNKEREETIQKELADVEREDEKLNNEIQSISRTIDENRYEMDTFAAKSTSLKQEYDAAYVAQQTAAREEKAIRDKIGNTEQDISAANDQLRRIVARPVYNGITGVRKVIEEFKHDNRNGQHDDVINGYYGTVIELAEVPDMFRTAVEVIAQNRLFYHVVETDRIATKILRKFNEMQLPGEINFFPMNRVSAPRQRDLSNNSNARPMSDVIDYEVQYDKVFKSITANVIIVRTLDQAARDLRNEGFDVVSVDGDQMSKKGVMTGGFIDKKRSKLELHTQKDRFTKELAELQKSLAEAEKMVRERTQEAEKIRNRMQQHENQIGDFHRKHRELTEAKNAISQQFYMVTSTKEPKKDQLLGIKNHLRELLAQKENFEQEIGSNMSSQLTSDEEQTVKKLRKKVDEMTKQLATVSRRRMDLMHRKNAIENLLTKKLYKTKESLTAKNPKFFLQRVDDISDNERRHKLENANAQLTSLLTRMESTRKQLATAISELQDYETKEKALQINIDNVLEQQRDLEKQQADFQLQYDKITAKEDEVKQKREDSLKKLILSRYSIKTRKNQFSYEISDSEEVGAKREPIEHRKLKISTFCLEYRAKLEKVHSNMRLLGALPTDTFSKWQNVKPRELEKKLLECVNELKKYENVNKKALDQYMTASSQKEELTKRMAEQKKSEDSIEELLKVLENRKYEAIDLTFKQVKKNFEQVFKQLVPHGRGKMQMRAREQRDDEEGINSVELYEGISVLVSFVSDDGDSETREMTQLSGGQKSLVALAIIFSIQKCDPAPFYLFDEIDAALDAQHRKSVADMIQSLSDQAQFVTTTFRPELLATAEKFYGVRFRNKVSHIDSVTREQAYDFVEDDTTHG	not soluble
MGSDKIHHHHHHMLDKKTDILLAARKLFSEKDFTSVSMQAIAEECKMSKASIYKLFQSKEDLLLELLSFNQKQMVAAASRLQENTALTPEERLTQKVKMELEGFRRNQQFFNMLTYGNPRLHNDRVKQHIHQTRSTIICWHRDSLIQAYGETILPFVWDLVIILHGMMREFLMLIKIEEKPLELDPIAEFIISTLNQIIKNRETRQSLLPPEAIELYIHSASSYKPKDKSVLLSESLKELHKGISSLSAADYDVDELTSAAAMLEEEAKKEEPRAFLLKSLIGYLEQTGVLTQPVSMLKTLLIT	not soluble
